Experimental data as given in US20260166131A1, “METHOD FOR PROMOTING PATHOLOGICAL TDP-43 PROTEIN DEGRADATION, AND DRUG” (TALENGEN INTERNATIONAL LIMITED, priority 2022, published 2026).
“And” between values parts separate entries of the source, which are not always exact repeats. Equal entries are not always repeated. Where two headings read alike, the source gives them in different places.

Key:
[1] = test system: TDP-43; test: TDP-43 in spinal cord tissue of SOD1-G93A mice after plasminogen (Western blot); assay type: in vivo; conditions: 50 mg/kg tail vein, 24 hours after administration, vs vehicle group, P<0.05
Protocol: Six SOD1-G93A mice aged 10-15 weeks were randomly divided into two groups: 3 mice in vehicle control group, and 3 mice in plasminogen group. The vehicle control group mice were injected with the vehicle at 5 ml/kg by tail vein, and the plasminogen group mice were injected with plasminogen (10 mg/ml) at 50 mg/kg body weight by tail vein. The mice were killed 24 hours after administration, and the spinal cords were obtained. After homogenization, TDP-43 was detected by western blot.

[2] = Human plasminogen level in nuclei of brain, spinal cord and kidney tissue of SOD1-G93A mice (ELISA); assay type: in vivo, mouse; conditions: 50 mg/kg tail vein every day, 7 days, vs vehicle group, P<0.001
Protocol: Ten 9-week-age SOD1-G93A mice were randomly divided into two groups: a vehicle group and a plasminogen group, with 5 mice in each group. Five C57 mice of the same week-age were selected as normal control mice. […] The vehicle and plasminogen were administered continuously for 7 days. The mice were killed 7 days later, and brain, spinal cord and kidney tissues were collected. The tissue was cut into small pieces to digest with 0.25% trypsin (Beyotime Biotechnology, C0201-500 mL), then filtering with a 200-mesh cell sieve to obtain a single cell suspension. […] The extracted nuclear protein was tested for human plasminogen level by ELISA.

[3] = Blood plasminogen level in MPTP Parkinson's model mice (ELISA); assay type: in vivo, mouse; conditions: 50 mg/kg tail vein
Protocol: Eighteen 6-week-age male C57BL/6J mice were injected intraperitoneally with 1-methyl-4-phenyl-1,2,3,6-tetrahydropyridine (MPTP) solution at a dose of 35 mg/kg/mouse for 5 consecutive days to establish a Parkinson's model [7]. […] The mice were randomly divided into two groups according to their body weight: 6 mice in vehicle group, 12 mice in plasminogen group; and administration was begun to record as day 1. The mice in the plasminogen group were injected with 50 mg/kg body weight of plasminogen solution by tail vein, and the mice in the vehicle group were injected with 5 mL/kg body weight of vehicle solution (10 mM citric acid-sodium citrate solution, pH 7.4) by tail vein. Three mice in the vehicle group were killed respectively 2 and 24 hours after administration, and their blood was collected. Three mice in the plasminogen group were killed 2, 6, 12, and 24 hours after administration, and their blood was collected. After the blood was centrifuged (3500 rpm, 10 min, 4° C.), the supernatant was taken to detect according to the instructions of Human Plasminogen ELISA Kit (manufacturer: AssayMax, catalog number: EP1200-1). The concentration of each sample was calibrated by using human plasminogen working standard as the internal standard. […]

[4] = Brain tissue plasminogen level in MPTP Parkinson's model mice (ELISA); assay type: in vivo, mouse; conditions: 50 mg/kg tail vein
[5] = Parkinson's model mice, 50 mg/kg tail vein
Protocol: Eighteen 6-week-age male C57BL/6J mice were injected intraperitoneally with 1-methyl-4-phenyl-1,2,3,6-tetrahydropyridine (MPTP) solution at a dose of 35 mg/kg/mouse for 5 consecutive days to establish a Parkinson's model. Preparation of MPTP solution: 45 mg of MPTP (Sigma, M0896) was dissolved in 9 ml of physiological saline solution to prepare a final concentration of 5 mg/ml. The mice were randomly divided into two groups according to their body weight: 6 mice in vehicle group, 12 mice in plasminogen group; and administration was begun to record as day 1. The mice in the plasminogen group were injected with 50 mg/kg body weight of plasminogen solution by tail vein, and the mice in the vehicle group were injected with 5 mL/kg body weight of vehicle solution (10 mM citric acid-sodium citrate solution, pH 7.4) by tail vein.

[6] = Brain tissue plasminogen level after tail vein injection in SOD1-G93A mice (ELISA)
Protocol: Twenty-seven 10-15 week-age B6.Cg-Tg (SOD1-G93A) 1Gur/J (SOD1-G93A) mice (pedigree number: 004435) (referred to as SOD1-G93A mice) (breeding mice were purchased from Jackson Laboratory, USA) were randomly divided into three groups: three in the vehicle control group, 12 in the 6 mg/kg plasminogen group, and 12 in the 50 mg/kg plasminogen group. The mice in the vehicle control group were injected with vehicle at 5 ml/kg by tail vein, the mice in the 6 mg/kg plasminogen group were injected with plasminogen (1.2 mg/ml) at 6 mg/kg body weight by tail vein, and the mice in the 50 mg/kg plasminogen group were injected with plasminogen (10 mg/ml) at 6 mg/kg body weight by tail vein.
Brain tissue was obtained from the mice sacrificed in Example 11, homogenizing and detecting according to the instructions of Human Plasminogen ELISA Kit (manufacturer: AssayMax, catalog number: EP1200-1). The human plasminogen working standard in the kit was used as the internal standard to calibrate the concentration of each sample. The calibrated concentration was divided by the total protein concentration to calculate the amount of plasminogen per unit of total protein in each sample and perform statistical analysis.

[7] = biological target: TDP-43 (Mus musculus, UniProt Q921F2); test: TDP-43 in brain tissue of okadaic acid-induced dementia model (FAD) mice (Western blot); assay type: in vivo; parameters: from tissue; host or cells: mouse spinal cord, gluteal muscle, brain, kidney cell nuclei; conditions: okadaic acid in basolateral amygdala, 50 mg/kg tail vein single dose, 6 hours, vs vehicle group
TDP-43 (Mus musculus, UniProt Q921F2), sequence (Q921F2 whole entry): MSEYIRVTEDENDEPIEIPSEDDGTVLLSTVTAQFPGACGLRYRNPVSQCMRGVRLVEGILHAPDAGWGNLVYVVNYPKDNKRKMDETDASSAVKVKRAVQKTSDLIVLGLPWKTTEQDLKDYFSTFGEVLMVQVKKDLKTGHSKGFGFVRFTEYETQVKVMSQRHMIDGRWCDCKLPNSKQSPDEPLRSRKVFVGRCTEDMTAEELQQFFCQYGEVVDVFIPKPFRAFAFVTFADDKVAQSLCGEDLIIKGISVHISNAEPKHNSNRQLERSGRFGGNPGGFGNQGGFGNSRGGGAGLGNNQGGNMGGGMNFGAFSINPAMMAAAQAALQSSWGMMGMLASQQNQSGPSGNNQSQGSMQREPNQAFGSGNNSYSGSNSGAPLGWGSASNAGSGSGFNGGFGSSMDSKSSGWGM
Protocol: Ten B6SJL-Tg (APPSwFlLon, PSEN1*M146L*L286V) 6799Vas/Mmjax (hereinafter referred to as FAD) female mice aged 30-32 weeks (purchased from Jackson lab, stock number: 034840) were taken to weigh before modeling as the model group, and five C57 female mice aged 6-7 weeks were selected as the blank group. After grouping, mice in the blank group and model group were anesthetized by intraperitoneal injection of tribromoethanol at a dose of 20 mL/kg. Model mice were located in the basolateral amygdala according to the mouse stereotaxic atlas (according to the coordinates of the bregma: AP-1.94 mm, ML+3.15 mm, DV-4.5 mm), and each mouse was slowly microinjected bilaterally. Mice in the blank group were only drilled at the coordinate location point without injection. The mice in the model group were injected with 50 ng/μL okadaic acid (manufacturer: Shanghai Yuanye Biotechnology Co., Ltd., catalog number S30686-25 ug:) solution, the injection rate was 0.5 μL/min, the injection volume was 2 μL, and after the injection, the syringe stayed for 6 minutes and then slowly withdrew. […] The mice were killed 6 hours after the single administration and the brain tissues were obtained. After homogenization, TDP-43 was detected by western blot.

B1: plasminogen: human plasminogen purified from human donor plasma, in which human Lys-plasminogen and Glu-plasminogen are >98% (protein)
chain: KVYLSECKTGNGKNYRGTMSKTKNGITCQKWSSTSPHRPRFSPATHPSEGLEENYCRNPDNDPQGPWCYTTDPEKRYDYCDILECEEECMHCSGENYDGKISKTMSGLECQAWDSQSPHAHGYIPSKFPNKNLKKNYCRNPDRELRPWCFTTDPNKRWELCDIPRCTTPPPSSGPTYQCLKGTGENYRGNVAVTVSGHTCQHWSAQTPHTHNRTPENFPCKNLDENYCRNPDGKRAPWCHTTNSQVRWEYCKIPSCDSSPVSTEQLAPTAPPELTPVVQDCYHGDGQSYRGTSSTTTTGKKCQSWSSMTPHRHQKTPENYPNAGLTMNYCRNPDADKGPWCFTTDPSVRWEYCNLKKCSGTEASVVAPPPVVLLPDVETPSEEDCMFGNGKGYRGKRATTVTGTPCQDWAAQEPHRHSIFTPETNPRAGLEKNYCRNPDGDVGGPWCYTTNPRKLYDYCDVPQCAAPSFDCGKPQVEPKKCPGRVVGGCVAHPHSWPWQVSLRTRFGMHFCGGTLISPEWVLTAAHCLEKSPRPSSYKVILGAHQEVNLEPHVQEIEVSRLFLEPTRKDIALLKLSSPAVITDKVIPACLPSPNYVVADRTECFITGWGETQGTFGAGLLKEAQLPVIENKVCNRYEFLNGRVQSTELCAGHLAGGTDSCQGDSGGPLVCFEKDKYILQGVTSWGLGCARPNKPGVYVRVSRFVTWIEGVMRNN
- amount of low molecular weight TDP-43 in spinal cord tissue [1]: significantly lower
- level of human plasminogen in the nuclei of brain tissue [2]: significantly higher
- level of human plasminogen in the nuclei of kidney tissue [2]: significantly higher
- level of human plasminogen in the nuclei of spinal cord tissue [2]: significantly higher
- time within which plasminogen is almost completely metabolized (blood) [3]: 12 to 24 h
- plasminogen level in the blood ([3]; vs vehicle group): significantly higher
- time within which plasminogen is almost completely metabolized (brain tissue) [4]: 12 to 24 h
- plasminogen level in the brain tissue ([4]; vs vehicle group): significantly higher
- ratio of brain tissue plasminogen level to blood plasminogen level ([5]; 2 hours): 3.47%
- ratio of spinal cord tissue plasminogen level to blood plasminogen level ([5]; 2 hours): 1.24%
- ratio of brain tissue plasminogen level to blood plasminogen level ([5]; 6 hours): 4.18%
- ratio of spinal cord tissue plasminogen level to blood plasminogen level ([5]; 6 hours): 1.16%
- ratio of brain tissue plasminogen level to blood plasminogen level ([5]; 12 hours): 8.51%
- ratio of spinal cord tissue plasminogen level to blood plasminogen level ([5]; 12 hours): 1.46%
- plasminogen level in brain tissue, 50 mg/kg group compared with 6 mg/kg group ([6]; SOD1-G93A mice, tail vein): significantly higher
- time within which plasminogen is almost completely metabolized (brain tissue) ([6]; SOD1-G93A mice, tail vein 50 mg/kg and 6 mg/kg): 12 to 24 h
- plasminogen level in brain tissue ([6]; SOD1-G93A mice, tail vein injection of 6 mg/kg): increase significantly
- plasminogen level in brain tissue ([6]; SOD1-G93A mice, tail vein injection of 50 mg/kg): increase significantly
- ratio of brain tissue plasminogen level to blood plasminogen level ([6]; mouse, in vivo): 3.47% and 4.94% and 6.79%
- level of TDP-43 monomer in brain tissue [7]: significantly lower
- level of low molecular weight TDP-43 in brain tissue [7]: significantly lower
